Molecular target: human FLT3 receptor (human) (UniProt P36888)
Assay: SPR

Sequence of UniProt P36888 (P36888 27-993): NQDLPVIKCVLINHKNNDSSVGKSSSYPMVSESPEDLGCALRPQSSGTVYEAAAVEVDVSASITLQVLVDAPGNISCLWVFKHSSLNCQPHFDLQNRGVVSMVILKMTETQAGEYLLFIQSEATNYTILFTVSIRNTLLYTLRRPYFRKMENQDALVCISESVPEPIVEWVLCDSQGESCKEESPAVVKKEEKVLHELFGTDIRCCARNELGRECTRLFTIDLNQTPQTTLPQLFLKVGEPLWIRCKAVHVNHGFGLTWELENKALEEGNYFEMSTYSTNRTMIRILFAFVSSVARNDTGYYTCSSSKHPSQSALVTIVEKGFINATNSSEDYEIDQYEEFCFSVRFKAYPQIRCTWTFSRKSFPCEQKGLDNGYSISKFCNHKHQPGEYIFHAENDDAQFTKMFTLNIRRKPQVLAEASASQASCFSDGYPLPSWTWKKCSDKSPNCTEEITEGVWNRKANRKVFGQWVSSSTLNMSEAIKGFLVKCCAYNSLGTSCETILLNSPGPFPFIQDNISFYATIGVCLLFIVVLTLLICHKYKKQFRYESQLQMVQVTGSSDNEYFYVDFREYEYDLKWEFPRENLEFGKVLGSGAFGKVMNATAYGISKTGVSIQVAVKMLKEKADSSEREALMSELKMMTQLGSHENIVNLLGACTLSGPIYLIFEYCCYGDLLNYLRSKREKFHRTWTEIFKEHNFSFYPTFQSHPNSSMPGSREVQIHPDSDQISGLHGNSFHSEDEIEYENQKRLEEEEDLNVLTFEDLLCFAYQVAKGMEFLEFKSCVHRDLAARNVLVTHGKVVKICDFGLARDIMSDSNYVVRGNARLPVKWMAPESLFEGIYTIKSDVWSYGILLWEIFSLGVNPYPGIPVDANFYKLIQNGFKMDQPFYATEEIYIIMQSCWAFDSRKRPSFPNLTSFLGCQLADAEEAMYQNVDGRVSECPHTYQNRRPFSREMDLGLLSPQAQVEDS

human FLT3L protein (from UniProt P49771 27-184) (ligand)
Kd: 22.3 nM
koff: 0.812 s⁻¹
